Assay results reported in patent US20230236188A1.

Molecular target: CD40 on human B cells (human) (UniProt P25942)
Test: cell-based or functional assay

Chain of UniProt P25942 (P25942 21-277): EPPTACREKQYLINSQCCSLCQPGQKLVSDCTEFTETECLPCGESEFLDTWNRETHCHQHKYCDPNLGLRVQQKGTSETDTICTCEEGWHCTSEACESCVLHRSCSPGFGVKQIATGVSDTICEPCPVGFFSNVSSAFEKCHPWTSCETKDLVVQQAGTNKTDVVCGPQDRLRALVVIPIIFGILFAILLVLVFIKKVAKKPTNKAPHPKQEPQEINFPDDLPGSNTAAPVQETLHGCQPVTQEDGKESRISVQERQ

Row | average CD40 internalization score after co-culture with 10% hCD40L-CHO cells | average CD40 internalization score on fresh B cells co-cultured 1 h with autologous CD40L-IZ-stimulated B cells that had upregulated CD40L | percent of B cells with CD40 downregulation after 1 h co-incubation with 1% hCD40L-CHO cells | percent of B cells with CD40 internalization after co-culture with 10% hCD40L-CHO cells | percent of B cells with NF-kB p50 nuclear translocation after hCD40L-CHO cells (unstimulated: 29%) | percent of fresh B cells with internalized CD40 after co-culture with autologous CD40L-IZ-stimulated B cells that had upregulated CD40L | percent of fresh B cells with p50 nuclear translocation after co-culture with CD40L-IZ-stimulated B cells | percent of total CD40lo/- B cells after 1 h co-incubation with 10% hCD40L-CHO cells | average CD40 internalization score after 1 h stimulation (unstimulated: 0.41) | percent of B cells with NF-kB p50 nuclear translocation (unstimulated: 29%) | percent of B cells with internalized CD40 (internalization score >2.5; unstimulated: 2.1%) | Substance
1 | 1.69 | 1.26 | 5% | 33% | 54% | 19.5% | 41% | 37% |  |  |  | human CD40 ligand (CD40L), membrane form on cells (from UniProt P29965 1-261)
2 |  |  |  |  |  |  |  |  | 2.09 | 58% | 42% | human CD40L isoleucine zipper (CD40L-IZ) (from UniProt P29965 113-261) (ligand)
